Results as given in CN101538329A.

How the values were obtained:
[1] = target: β-淀粉样多肽 Aβ1-42 (beta-amyloid peptide, purified) (human) (UniProt P05067); experiment: phage ELISA on coated Aβ, OD490, against negative control (2% MPBS)
[2] = target: β-淀粉样多肽 Aβ1-42 (beta-amyloid peptide, purified) (human) (UniProt P05067); experiment: repeated phage ELISA on coated Aβ, OD490, against negative control
[3] = target: β-淀粉样多肽 Aβ1-42 (beta-amyloid peptide, purified) (human) (UniProt P05067); experiment: ELISA on coated Aβ, culture supernatant fraction; induced against uninduced strain
[4] = target: β-淀粉样多肽 Aβ1-42 (beta-amyloid peptide, purified) (human) (UniProt P05067); experiment: ELISA of soluble scFv fractions on coated Aβ, anti-c-myc detection; induced against uninduced strain
[5] = target: β-淀粉样多肽 Aβ1-42 (beta-amyloid peptide, purified) (human) (UniProt P05067); experiment: ELISA on coated Aβ, whole-cell protein fraction; induced against uninduced strain

Sequence of UniProt P05067 (P05067 672-713 limits assumed): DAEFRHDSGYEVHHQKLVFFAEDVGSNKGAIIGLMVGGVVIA

Binder	ELISA A值 fold over negative control [1]	ELISA A值 fold over negative control [2]	ELISA A值 fold of induced over uninduced strain [3]	ELISA A值 fold of induced over uninduced strain [4]	ELISA A值 fold of induced over uninduced strain [5]
A10 单克隆噬菌体抗体 (phage-displayed human anti-Aβ scFv, clone A10) (scFv, part only; not given: linker, tag and phage fusion, not shown: small tags and cut ends; large carriers) scFv (part 1 of 2), part: EVQLVQSGAEVKRPGSSVNVSCKASGGTLSNYGLSWVRQAPGQGLEWMGGIIPSFGPANYAQIFQGRVTITADESTNTAYMELRSLTSDDTAVYYCAREGGVGVATTYWLDPWGQGTTVTVSS scFv (part 2 of 2), part: HFMLTQPHSVSESPGKTVTISCTRSSGSIASTYVHWYQQRPGTSPTTVIYEDNRRHSRVPDRFSGSIDSSSNSASLTISGLKTEDEGDYYCQSYDSTNAWVFGGGTKVTVLG	2 fold	> 5 fold	–	–	–
F2 单克隆噬菌体抗体 (phage-displayed human anti-Aβ scFv, clone F2) (scFv, part only; not given: linker, tag and phage fusion, not shown: small tags and cut ends; large carriers) scFv (part 1 of 2), part: EVQLVQSGAEVKRPGSSVNVSCKASGGTLSNYGLSWVRQAPGQGLEWMGGIIPSFGPANYAQIFQGRVTITADESTNTAYMELRSLTSDDTAVYYCAREGGVGVATTYWLDPWGQGTTVTVSS scFv (part 2 of 2), part: HFMLTQPHSVSESPGKTVTISCTRSSGSIASTYVHWYQQRPGTSPTTVIYEDNRRHSRVPDRFSGSIDSSSNSASLTISGLKTEDEGDYYCQSYDSTNAWVFGGGTKVTVLG	> 2 fold	> 5 fold	–	–	–
A10 可溶性抗Aβ scFv (soluble scFv of clone A10 expressed in E. coli HB2151) (scFv, V domains shown, not shown: small tags and cut ends) VH: EVQLVQSGAEVKRPGSSVNVSCKASGGTLSNYGLSWVRQAPGQGLEWMGGIIPSFGPANYAQIFQGRVTITADESTNTAYMELRSLTSDDTAVYYCAREGGVGVATTYWLDPWGQGTTVTVSS VL: HFMLTQPHSVSESPGKTVTISCTRSSGSIASTYVHWYQQRPGTSPTTVIYEDNRRHSRVPDRFSGSIDSSSNSASLTISGLKTEDEGDYYCQSYDSTNAWVFGGGTKVTVLG	–	–	> 5 fold	> 2 fold	> 5 fold
F2 可溶性抗Aβ scFv (soluble scFv of clone F2 expressed in E. coli HB2151) (scFv, V domains shown, not shown: small tags and cut ends) VH: EVQLVQSGAEVKRPGSSVNVSCKASGGTLSNYGLSWVRQAPGQGLEWMGGIIPSFGPANYAQIFQGRVTITADESTNTAYMELRSLTSDDTAVYYCAREGGVGVATTYWLDPWGQGTTVTVSS VL: HFMLTQPHSVSESPGKTVTISCTRSSGSIASTYVHWYQQRPGTSPTTVIYEDNRRHSRVPDRFSGSIDSSSNSASLTISGLKTEDEGDYYCQSYDSTNAWVFGGGTKVTVLG	–	–	> 5 fold	> 2 fold	> 5 fold
